# B1: F1.105.11 (antibody, human IgG1, kappa, V domains shown)
# VH: EVQLQQSGPVLVKPGASVKMSCKASGYTFSDYFMNWVKQSHGKSLEWIGIINSYSGGTSYNQKFKGKATLTVDKSSSTAYMELNSLTSEDSAVYYCARWMDYWGQGTSVTVSS
# VL: DVQITQSPSYLAASPGETITINCRTSESISKHLAWYQEKPGKTNKLLIYSGSTLQSGIPSRFSGSGSGTDFTLTISSLEPEDFAMYYCQQHNEYPWTFGGGTKLEIKR
# notes: human-murine chimeric IgG1 kappa; VL name legible
# B2: F1.250.16 (antibody, human IgG1, kappa, V domains shown)
# VH: QVQLQQSGAEQVKPGASVKMSCKASGYTFTTYPIEWMKQNHGESLDWIGNIHPYNDDTEYNEKFKGKATLTVEKSSNTVFLELSRLTSDDSAVYYCVRGDYYNSRYWYFDVWGTGTTVTVSS
# VL: DIVMTQSQKFMSTTVGDRVSITCKAGQNVRTAVAWYQQKPGQSPKLLIYSASTRYIGVPERFTGSGSGTDFTLTITNMQSEDLADYFCQQYSSFPLTFGTGTKLELKR
# notes: as for B1
# B3: F1.120.15 (antibody, human IgG1, kappa, V domains shown)
# VH: QVQLQQSGPELVKPGASVKISCKASGNAFSNSWMNWVKQRPGKGLEWIGRVYSEDGDTQYNGKFRDKATLTADRSTSTAYMQLSSLTSEDSAVYFCARWLIYYGTYGAMDYWGQGTSVTVSS
# VL: DIQMTQTTSSLSASLGDRVTISCRASQDINNYLNWYHQKPDGTVKLLIYFTSRPYSGVPSRFSGSGSGTDYSLTISNLEQEDIATYFCQQGNTLPWTFGGGTKLEIKR
# notes: human-murine chimeric IgG1 kappa
# B4: F1.267.9 (antibody, human IgG1, kappa, V domains shown)
# VH: EVQLQQSGPVLVKPGASVKMSCKASGYTFTDFYMNWAKQSHGKSLEWVGVINPYNGGINYNQKFKGKATLTVDKSSSTAYMEFNSLTSEDSAVYYCARRMEYHAMDYWGQGTSVTVSS
# VL: DIVLTQSPASLAVSLGQRATISCRASESVDNYGFDFIHWYQQKPGQPPKLLIYRASNLESGIPARFSGSGSRPDFTLTINPVETDDVATYYCQQSIKDPWTFGGGTKLEIKR
# notes: as for B1
# B5: F1.7.6 (antibody, human IgG1, kappa, V domains shown)
# VH: EIQLQQSGPELVKPGTSVKVSCKASGYDFTRYNMYWVKQSHGKSLEWIGYIDPYNGDTRYNQKFKGKATLTVDKSSSTAYMHLNSLTSEDSAVYYCEAIYYDMEGYALDYWGQGTSVTVSS
# VL: DIVMSQSPSSLAVSVGEKVTMSCKSSQSLLYSNNQKNYLAWYQQKPGQSPKKLIYWASTRESGVPDRLTGSGSGTDFTLTISSVTAEDLAVYYCQQFYSYPWTFGGGTKLEIKR
# notes: as for B1
# B6: F1.224.1 (antibody, human IgG1, kappa, V domains shown)
# VH: EVLLHQSGPELVKPGASVKISCKASGYTFTDFNMDWVRQRHGQSLEWIGDVNPNNGGTIYNQKFKGKATLTVDKSSSTVYMDLRSLTSDDTAVYYCVRLGTSDYGEAWFISWGQGTVVTVSA
# VL: DIVLTQSPASLAVSLGQRATISCRASQSVSTPRYSFMHWYQQKPGQPPKLLIKYASNLESGFPARFTGSGSGTDFTLNIHPVEEEDTAAYYCQQSWAIPWTFGGGTKLEIKR
# notes: as for B1
# B7: F1.231.15 (antibody, IgG1, V domains shown)
# VH: QVQLQQPGAELVKPGASVKLSCKTSGYTFTIYWMQWVKQRPGRGLEWIGRIDPHSGDTHYNENFTTKVTLTVDETSNTAYMHLSGLTSEDSAVYYCARRDYSYYVLDYWGQGTSVTVSS
# VL: DVVLTQTPLSLPVSLGDQASISCRSSQSLVHINGDTYLHWYLQKPGQSPKLLIYTVFNRFSGVPDRFSGSGSGTDFTLKISRVEAEDLGAYFCSQSTHVPYTFGGGTKLEIKR
# notes: as for B3
# Biological target: T1, CD22 on cynomolgus monkey peripheral blood B cells (cynomolgus monkey (Macaca fascicularis))
# T1 construct: whole, on cells; also called cynomolgus monkey B cells
# Experiment: FACS, cynomolgus PBMC, CD20+ B cells, antibody 1 nM
# Text: (§1) The monkey peripheral blood mononuclear cells were extracted from fresh cynomolgus monkey peripheral blood (purchased from Shanghai Medicilon Inc.) according to the instructions of Ficoll-Paque Plus (purchased from GE Healthcare, catalog number: 171440-02). After the cell suspension was centrifuged, the cells were resuspended in PBS containing 1% BSA, and then the cells were counted. At the same time, the murine antibody Brilliant Violet 605 anti-human CD20 (catalog number: 302334, purchased from Biolegend) with monkey CD20 cross-binding activity and the chimeric antibodies to be tested (1 nM, 10 nM and 100 nM) were added and incubated at room temperature for 1 hour. After washing the cells three times, APC-labeled secondary antibody anti-human IgG Fc (catalog number: 409306, purchased from Biolegend) was added. After incubation at room temperature in the dark for 30 minutes, the cells were washed 5 times, gently resuspended with PBS containing 1% BSA, and detected and analyzed by FACS (FACS Canto™, purchased from BD Company). Wherein CD20 was used as a marker of B cells, and the CD20-positive B cell population was gated, the proportion of chimeric antibody positive cells was analyzed, and the proportion of chimeric antibody positive cell population to B cell population was calculated after treatments with the chimeric antibodies at the concentrations of 100 nM, 10 nM and 1 nM, respectively. The scatter plot of double-stained cells by Brilliant Violet 605-labeled CD20 and APC secondary antibody indirectly labeled chimeric antibody is shown in FIG. 10A-FIG. 10B (under the condition of 1 nM of chimeric antibody concentration).
row,Binder,Proportion of chimeric antibody positive cells to B cells (%)
1,B1,46%
2,B2,92%
3,B3,27%
4,B4,39%
5,B5,17%
6,B6,83%
7,B7,11%

# Biological target: T2, monkey CD22 protein (ACROBiosystems, catalog number SI2-R52Ha) (monkey, UniProt F6W485 20-688)
# T2 construct: commercial protein; also called monkey CD22-ECD; monkey CD22-ECD-His
# T2 sequence: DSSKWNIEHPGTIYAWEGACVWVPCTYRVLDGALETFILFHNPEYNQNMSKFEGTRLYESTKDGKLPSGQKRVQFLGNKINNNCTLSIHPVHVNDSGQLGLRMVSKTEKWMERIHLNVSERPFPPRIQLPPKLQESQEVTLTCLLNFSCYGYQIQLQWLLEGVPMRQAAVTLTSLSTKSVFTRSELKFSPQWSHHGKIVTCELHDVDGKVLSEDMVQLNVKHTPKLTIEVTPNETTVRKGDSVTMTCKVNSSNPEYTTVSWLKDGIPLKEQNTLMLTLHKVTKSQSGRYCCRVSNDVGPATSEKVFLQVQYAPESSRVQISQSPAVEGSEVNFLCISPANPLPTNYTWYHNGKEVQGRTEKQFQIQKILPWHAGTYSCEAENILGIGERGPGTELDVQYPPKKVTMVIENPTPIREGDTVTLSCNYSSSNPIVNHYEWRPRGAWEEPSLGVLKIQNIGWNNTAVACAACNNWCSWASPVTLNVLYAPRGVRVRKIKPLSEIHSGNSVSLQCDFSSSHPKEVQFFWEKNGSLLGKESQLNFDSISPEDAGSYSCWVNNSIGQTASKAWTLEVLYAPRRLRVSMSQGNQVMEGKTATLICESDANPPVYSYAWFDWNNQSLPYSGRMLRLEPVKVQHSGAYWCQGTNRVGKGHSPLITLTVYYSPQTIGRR
# Experiment: ELISA, coated monkey CD22 protein, antibody 0.01 nM
# Procedure: (§2) In order to detect the binding activity of CD22 human-murine chimeric antibodies to CD22 protein, the purified human CD22-ECD-His protein obtained in Example 2 was diluted with PBS to a final concentration of 2 μg/mL, and then added to 96-well ELISA plate at 100 μl/well. The plate was sealed with plastic film and incubated overnight at 4° C., the plate was washed 2 times with PBS the next day, and then a blocking solution [PBS+2% (w/w) BSA] was added for blocking at room temperature for 2 hours. […] After incubation at 37° C. for 2 hours, the plate was washed 3 times with PBS. HRP (horseradish peroxidase)-labeled secondary antibody (purchased from Sigma, catalog number: A0170) was added, and incubated at 37° C. for 2 hours, and the plate was washed 5 times with PBS. TMB substrate was added at 50 μl/well, and incubated at room temperature for 30 minutes, then a stop solution (1.0 N HCl) was added at 50 μl/well.
# (§3) In order to detect the species cross-binding activity of the chimeric antibodies, an ELISA plate was coated with commercial murine CD22 protein (ACROBiosystems, catalog number: SI2-M52Ha) and monkey CD22 protein (ACROBiosystems, catalog number: SI2-R52Ha), respectively, and the ELISA detection was performed according to the method in Example 5.1.
row,Binder,OD450
1,B1,0.68 OD450
2,B2,2.62 OD450
3,B3,0.65 OD450
4,B4,0.27 OD450
5,B5,0.06 OD450
6,B6,1.86 OD450
7,B7,0.09 OD450

# Biological target: T1, CD22 on cynomolgus monkey peripheral …
# Experiment: FACS, cynomolgus PBMC, CD20+ B cells, antibody 100 nM
# Text: as §1
row,Binder,Proportion of chimeric antibody positive cells to B cells (%)
1,B1,69%
2,B2,97%
3,B3,93%
4,B4,95%
5,B5,43%
6,B6,97%
7,B7,29%

# Biological target: T2, monkey CD22 protein (ACROBiosystems, …)
# Experiment: ELISA, coated monkey CD22 protein, antibody 0.1 nM
# Procedure: as §2, §3
row,Binder,OD450
1,B1,1.31 OD450
2,B2,2.81 OD450
3,B3,1.56 OD450
4,B4,1.07 OD450
5,B5,0.07 OD450
6,B6,2.3 OD450
7,B7,0.17 OD450

# Biological target: T2, monkey CD22 protein (ACROBiosystems, …)
# Experiment: ELISA, coated monkey CD22 protein, antibody 0.0001 nM
# Procedure: as §2, §3
row,Binder,OD450
1,B1,0.07 OD450
2,B2,0.23 OD450
3,B3,0.07 OD450
4,B4,0.07 OD450
5,B5,0.06 OD450
6,B6,0.15 OD450
7,B7,0.06 OD450

# Biological target: T1, CD22 on cynomolgus monkey peripheral …
# Experiment: FACS, cynomolgus PBMC, CD20+ B cells, antibody 10 nM
# Text: as §1
row,Binder,Proportion of chimeric antibody positive cells to B cells (%)
1,B1,59%
2,B2,95%
3,B3,86%
4,B4,91%
5,B5,28%
6,B6,96%
7,B7,16%

# Biological target: T2, monkey CD22 protein (ACROBiosystems, …)
# Experiment: ELISA, coated monkey CD22 protein, antibody 0.00001 nM
# Procedure: as §2, §3
row,Binder,OD450
1,B1,0.06 OD450
2,B2,0.1 OD450
3,B3,0.06 OD450
4,B4,0.06 OD450
5,B5,0.06 OD450
6,B6,0.08 OD450
7,B7,0.06 OD450

# Biological target: T2, monkey CD22 protein (ACROBiosystems, …)
# Experiment: ELISA, coated monkey CD22 protein, antibody 100 nM
# Procedure: as §2, §3
row,Binder,OD450
1,B1,1.29 OD450
2,B2,3.08 OD450
3,B3,1.64 OD450
4,B4,2.27 OD450
5,B5,0.44 OD450
6,B6,2.87 OD450
7,B7,0.45 OD450

# Biological target: T2, monkey CD22 protein (ACROBiosystems, …)
# Experiment: ELISA, coated monkey CD22 protein, antibody 0.001 nM
# Procedure: as §2, §3
row,Binder,OD450
1,B1,0.17 OD450
2,B2,1.02 OD450
3,B3,0.16 OD450
4,B4,0.1 OD450
5,B5,0.06 OD450
6,B6,0.6 OD450
7,B7,0.06 OD450

# Biological target: T2, monkey CD22 protein (ACROBiosystems, …)
# Experiment: ELISA, coated monkey CD22 protein, antibody 10 nM
# Procedure: as §2, §3
row,Binder,OD450
1,B1,1.4 OD450
2,B2,2.97 OD450
3,B3,1.9 OD450
4,B4,1.89 OD450
5,B5,0.17 OD450
6,B6,2.48 OD450
7,B7,0.31 OD450

# — US20240084003A1 (SIMCERE ZAIMING PHARMACEUTICAL, published 2024)
